B1: Lys-linked dimer (C-ter) (peptide)
peptide 1: [βAla]WLAYPDSVPYRPKK
peptide 2: [βAla]WLAYPDSVPYRPK
modifications: also: bond at chain A 15 to a chain's C-terminus
B2: linear dimer (head-to-tail) (peptide)
peptide: [βAla]WLAYPDSVPYRPKGGAWLAYPDSVPYRPK-NH2
modifications: N-terminus assumed
SMILES: CC(C)C[C@H](NC(=O)[C@H](Cc1c[nH]c2ccccc12)NC(=O)CCN)C(=O)N[C@@H](C)C(=O)N[C@@H](Cc1ccc(O)cc1)C(=O)N1CCC[C@H]1C(=O)N[C@@H](CC(=O)O)C(=O)N[C@@H](CO)C(=O)N[C@H](C(=O)N1CCC[C@H]1C(=O)N[C@@H](Cc1ccc(O)cc1)C(=O)N[C@@H](CCCNC(=N)N)C(=O)N1CCC[C@H]1C(=O)N[C@@H](CCCCN)C(=O)NCC(=O)NCC(=O)N[C@@H](C)C(=O)N[C@@H](Cc1c[nH]c2ccccc12)C(=O)N[C@@H](CC(C)C)C(=O)N[C@@H](C)C(=O)N[C@@H](Cc1ccc(O)cc1)C(=O)N1CCC[C@H]1C(=O)N[C@@H](CC(=O)O)C(=O)N[C@@H](CO)C(=O)N[C@H](C(=O)N1CCC[C@H]1C(=O)N[C@@H](Cc1ccc(O)cc1)C(=O)N[C@@H](CCCNC(=N)N)C(=O)N1CCC[C@H]1C(=O)N[C@@H](CCCCN)C(N)=O)C(C)C)C(C)C
B3: Click dimer (N-ter) (peptide)
peptide 1: KAWLAYPDSVPYRPK
peptide 2: XGAWLAYPDSVPYRPK
modifications: not fully specified; propargylglycine (Pra) at position 1, joined by a click linkage to KN3 of the other chain; C-terminal amide; azido-lysine (KN3) at position 1, joined by a click linkage to Pra of the other chain; C-terminal amide

*1 amine or outer side, *2 acyl side, *3 side chain or, on linkers, in order; H or OH if unused. Where no end group is shown, it is not given here. [ ]: non-standard residue; d: D form. Ccam = carbamidomethyl-cysteine, NC(=O)CSC[C@H](N[*:1])C(=O)[*:2]; βAla = NCCC(=O)O

For orientation: IC50 means the concentration that gives 50% inhibition.

For the first assay, the target named is EphA2 extracellular domain fused to the Fc portion of an antibody (EphA2-Fc). The assay is described as follows: ELISA, inhibition of ephrinA5-AP binding to immobilized EphA2-Fc. On the technique in general: An ELISA detects its analyte on a solid surface through an enzyme-linked reagent.
Sequence of EphA2 extracellular domain fused to the Fc portion of an antibody (EphA2-Fc) (P29317 whole entry, the tested form may be a part): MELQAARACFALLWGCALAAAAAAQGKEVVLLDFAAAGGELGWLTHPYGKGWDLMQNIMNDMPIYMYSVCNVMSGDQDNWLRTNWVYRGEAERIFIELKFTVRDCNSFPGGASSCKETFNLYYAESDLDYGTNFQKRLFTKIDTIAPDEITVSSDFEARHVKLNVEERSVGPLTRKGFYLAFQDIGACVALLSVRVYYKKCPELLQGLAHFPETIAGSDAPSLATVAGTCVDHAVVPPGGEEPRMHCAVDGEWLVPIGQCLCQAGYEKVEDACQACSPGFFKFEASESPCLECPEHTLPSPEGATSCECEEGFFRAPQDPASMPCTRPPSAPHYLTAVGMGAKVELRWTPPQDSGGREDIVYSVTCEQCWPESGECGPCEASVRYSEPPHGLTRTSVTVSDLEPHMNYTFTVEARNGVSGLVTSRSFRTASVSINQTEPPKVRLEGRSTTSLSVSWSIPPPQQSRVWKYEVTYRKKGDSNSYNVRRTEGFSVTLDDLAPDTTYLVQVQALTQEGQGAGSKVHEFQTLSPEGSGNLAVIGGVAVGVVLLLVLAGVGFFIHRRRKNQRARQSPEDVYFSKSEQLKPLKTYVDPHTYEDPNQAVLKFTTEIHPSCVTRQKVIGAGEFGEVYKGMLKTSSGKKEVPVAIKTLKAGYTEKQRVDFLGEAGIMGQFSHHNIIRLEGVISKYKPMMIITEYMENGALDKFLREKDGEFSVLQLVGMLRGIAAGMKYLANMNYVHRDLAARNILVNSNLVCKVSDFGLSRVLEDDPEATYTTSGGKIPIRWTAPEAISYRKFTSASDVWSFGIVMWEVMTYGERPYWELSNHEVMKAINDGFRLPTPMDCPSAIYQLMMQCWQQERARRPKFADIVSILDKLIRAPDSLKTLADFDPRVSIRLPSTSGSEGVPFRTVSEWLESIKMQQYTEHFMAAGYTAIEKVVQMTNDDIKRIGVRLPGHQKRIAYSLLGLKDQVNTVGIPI
B1 gave an IC50 of 0.77 nM.
Same read-out and setting: the value for B2 was 0.4 nM; that for [Ccam]GAWLAYPDSVPYR [CcamGA-WLA-YR] was 1400 nM.
The same measure, in the same setting: the value for B3 was 0.54 nM.

The next assay has the same target. The assay is described as follows: ELISA, inhibition of ephrinA5-AP binding to immobilized EphA2-Fc; representative experiment, triplicates.
Molecule B1 registered an IC50 of 0.77 nM. This lies in the sub-nanomolar range.
B2 displayed an IC50 of 0.38 nM. This IC50 lies about 2-fold lower than the previous one.
Same read-out and setting: the value for [Ccam]GAWLAYPDSVPYR [CcamGA-WLA-YR] was 1300 nM; that for B3 was 0.58 nM.

(Values after patent US20230391826A1, “COMPOSITIONS AND METHODS FOR TREATING DISEASES” (Sanford Burnham Prebys Medical Discovery Institute, priority 2020, published 2023).)
